# Biological target: MnSOD-3[Q142H], site-directed mutant of the manganese superoxide dismutase SOD-3 of C. elegans (C. elegans) (UniProt P41977)
# Experiment: crystal structure
substance,measurement,value
"MnSOD-3[Q142H], site-directed mutant of the manganese superoxide dismutase SOD-3 of C. elegans (from UniProt P41977 25-218) (enzyme)",stoichiometry N,4
